T1: L-selectin (Homo sapiens, UniProt P14151)
T1 construct: endogenous in cells; host or cells: human peripheral blood mononuclear cells (buffy coats)
T1 sequence (P14151 39-372): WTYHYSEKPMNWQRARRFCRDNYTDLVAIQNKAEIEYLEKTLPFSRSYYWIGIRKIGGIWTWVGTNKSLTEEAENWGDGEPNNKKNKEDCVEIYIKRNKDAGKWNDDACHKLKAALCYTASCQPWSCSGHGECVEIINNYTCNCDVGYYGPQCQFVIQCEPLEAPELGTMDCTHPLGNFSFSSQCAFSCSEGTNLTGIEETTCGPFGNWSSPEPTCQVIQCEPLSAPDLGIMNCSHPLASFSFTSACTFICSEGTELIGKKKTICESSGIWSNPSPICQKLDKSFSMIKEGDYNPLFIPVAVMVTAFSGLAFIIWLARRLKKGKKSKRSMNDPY

B1: OSM: recombinant human oncostatin M purchased from R&D Systems (protein)
chain: AAIGSCSKEYRVLLGQLQKQTDLMQDTSRLLDPYIRIQGLDVPKLREHCRERPGAFPSEETLRGLGRRGFLQTLNATLGCVLHRLADLEQRLPKAQDLERSGLNIEDLEKLQMARPNILGLRNNIYCMAQLLDNSDTAEPTKAGRGASQPPTPTPASDAFQRKLEGCRFLHGYHRFMHSVGRVFSKWGESPNRSRRHSPHQALRKGVRRTRPSRKGKRLMTRGQLPR

Columns and labels:
[1] = target: T1, L-selectin; assay: Stimulation of PBMC via L-selectin: OSM secretion (ELISA); assay type: cell-based; details: 24 hr incubation
Description: Mononuclear cells were isolated from human buffy coats as described above. 5×10^5 cells were plated out in 0.5 ml volumes and incubated for 24 hr at 37° C., 5% CO2 with 60-80 kD M. wt. fucoidan (Sigma) anti-L-selectin monoclonal antibodies, LAM1-3 and TQ1 or an isotype matched control IgG antibody (all from Coulter). Supernatants were assayed for OSM using a specific ELISA assay (Quantikine, R&D Systems), according to the Manufacturer's instructions.
Mononuclear cells from healthy donors were incubated for 24 hrs with anti-human L-selectin antibodies, (either TQ1 or LAM-1), or an isotype-matched control antibody and culture supernatants assayed by ELISA for OSM. […] The ability of the L-selectin agonist fucoidan to induce OSM from mononuclear cell cultures was then investigated.

[2] = test system: THP-1 cells; assay: OSM-induced TNFα production by PMA-differentiated THP-1 cells (ELISA, RT-PCR); assay type: cell-based, human
Description: Human pro-monocytic line THP-1 cells (ECACC) were passaged twice weekly in RPMI supplemented with 10% heat-inactivated FCS, 10 mM hepes, 1% non-essential amino acids (all from Sigma), 4 mM L-glutamine (Hyclone), 100 U/ml penicillin+100 μg/ml streptomycin (Hyclone) (complete medium, CM) and then PMA (Sigma) was added to washed cells at 1 ug/ml and Incubated at 37° C. for 30 minutes. Cells were washed ×3 in pre-warmed PBS, resuspended in CM and plated out at 1.5×10^5 cells/ml in 96-well flat bottomed plates (Costar). Plates were incubated for 48 hours at 37° C., 5% CO2, then washed with PBS, the media replaced, and incubated for a further 24 hours. Cells were washed ×1 in PBS before use.
(§1) Lyophilised, recombinant human oncostatin M (rhOSM) was purchased from R&D Systems diluted to 10 μg/ml in sterile PBS+0.1% BSA (Sigma) and aliquots stored at −20° C. until use. rhOSM, E. coli-derived LPS or CM were added to triplicate wells of macrophages, monocytes or Thp-1 cells, prepared as above and incubated for 7 hours at 37° C., 5% CO2. Supernatants were harvested and frozen at −20° C. until testing for TNFα protein by ELISA. In assays designed to co-assay for TNFα mRNA, cells were incubated as above for 4 hrs, washed once in PBS and lysed in RNA extraction buffer (RNAzole).
RNA was detected as follows. Total RNA was prepared according to the manufacturer's instructions and stored at −80° C. in DEPC-treated water. For RT-PCR, approximately 1 ug of RNA was reverse transcribed using oligo dT priming (first strand cDNA synthesis kit, Pharmacia Biotech) and the resulting cDNA subjected to 30 cycles of PCR using the following primers for TNFα (Clontech amplimers): forward—[…], (SEQ ID 1) reverse-[…] CCAGAC (SEQ ID 2). The amplified product (444 bp) was separated by agarose gel (2%) electrophoresis and visualized by ethidium bromide staining.
The human pro-monocytic line THP-1, was induced to differentiate using PMA, washed thoroughly, and incubated with recombinant human OSM as described above. Culture supernatants were removed at 8 hours and assayed for TNFα production by specific ELISA (TNF Quantikine, R&D Systems) in accordance with manufacturers instructions. OSM induced a dose-related release of TNFα, measurable above 1 ng/ml OSM and maximal at 200-500 ng/ml, routinely reaching secreted levels of greater than 2500 pg/ml TNFα.

[3] = test system: human blood monocytes; assay: OSM-induced TNFα secretion by interferon-γ pre-activated blood monocytes (ELISA); assay type: cell-based; details: co-incubated 8 hr with OSM, n=4 donors
Description: Human buffy coats (North London Blood Transfusion Centre) were diluted 1:3 with PBS, layered onto Lymphoprep (Nycomed UK) and centrifuged at 600×g for 30 minutes at room temperature. Harvested PBMC were washed 3 times in PBS, counted, and resuspended in 80 mls RPMI 1640/10% FCS at 5×10^6 cells/ml. 20 mls were put into each of four 175 cm^2 flasks and Incubated overnight at 37° C. to allow monocytes to adhere. Non-adherent cells were discarded and adherent cells scraped off after incubation with ice-cold versene at 4° C. for 15 minutes. Cells were washed twice in PBS, resuspended in RPMI 1640+10% heat inactivated human serum (Sigma) at 6.9×10^5/ml and 250 ul cell suspension placed into each well of 96-well flat bottomed plate (Costar). To half the plate was added 100 IU/ml IFNγ (Genzyme), the other half left as control. Plates were incubated overnight at 37° C., 5% CO2 prior to assay. […]
Importantly, TNFα induction was not due to contaminating endotoxin as pre-boiling of OSM completely ablated TNFα secretion (data not shown). […] Both cell types, when co-incubated for 8 hr with OSM, secreted TNFα, as measured by ELISA. […]

[4] = test system: human blood macrophages; assay: OSM-induced TNFα secretion by blood macrophages (ELISA); assay type: cell-based; details: co-incubated 8 hr with OSM, n=3 donors
Description: as §1
Importantly, TNFα induction was not due to contaminating endotoxin as pre-boiling of OSM completely ablated TNFα secretion (data not shown). Also, removal of OSM by immunoprecipitation using specific antibody abolished activity (data not shown). These findings were extended to include human blood monocytes, pre-activated with interferon-γ and human blood macrophages, differentiated in culture for 7 days. Both cell types, when co-incubated for 8 hr with OSM, secreted TNFα, as measured by ELISA. Mean TNFα secretion by monocytes was 1447 pg/ml (range 137-4709 pg/ml; n=4 donors) and 542 pg/ml by macrophages (range 62-1428 pg/ml; n=3 donors).

[5] = test system: Bovine nasal cartilage; assay: Cartilage degradation assay (hydroxyproline/collagen release, MMP1)
Description: Bovine nasal septum cartilage was held at 4° C. overnight after slaughter. 2 mm diameter discs were cut from 2 mm slices and washed twice in HBSS. Three discs per well of a 24 well plate (Costar) were incubated at 37° C., 5% CO2 for 24 hrs in a 600 μl volume of DMEM (Sigma) containing 25 mM HEPES supplemented with 2 mM glutamine, 100 μg/ml streptomycin, 100 U/ml penicillin and 2.5 μg/ml amphotericin B (cartilage degradation medium, CDM). Cartilage was cultured in quadruplicate wells in either: 600 μl of CDM alone, 2, 10 or 50 ng/ml human recombinant TNFα alone, 10 ng/ml rhOSM alone (R&D systems) or TNFα+OSM and incubated for 7 days at 37° C., 5% CO2. Supernatants were harvested and replaced with fresh medium containing identical test reagents to day 1. […] The cumulative level of OH-proline released into the medium by day 14 was measured and expressed as the percentage of total released as set out below.
Hydroxyproline release was assayed (as a measure of collagen degradation) using a microtitre plate modification of the method in (Bergmann I and loxley R. (1963) Anal. Biochem. 35 1961-1965. Chloramine T (7%) w/v) was diluted 1:4 in acetate citrate buffer (57 g sodium acetate, 37.5 g tri-sodium citrate, 5.5 g citrate acid, 385 ml propan-2-ol per liter water). […] The plate was heated to 65° C. for 35 min, cooled and the absorbance at 560 nm determined. […]

Molecule	OSM secretion by mononuclear cells [1]	Expression of TNFα message (RT-PCR) ([2]; 4 hr with 100 ng/ml OSM, relative to unstimulated control cells)	OSM concentration above which TNFα release is measurable ([2]; 8 hours)	OSM concentration at which TNFα release is maximal ([2]; 8 hours) [ng/mL]	secreted levels of TNFα ([2]; PMA-differentiated THP-1, supernatants at 8 hours, at maximal OSM)	Mean TNFα secretion by monocytes [3] [pg/mL]	Mean TNFα secretion by macrophages [4] [pg/mL]	collagen release ([5]; OSM alone at 10 ng/ml, day 14)	MMP1 secretion (total collagenase activity) ([5]; day 7, OSM 10 ng/ml, TNFα 50 ng/ml)
fucoidan	powerful stimulant of OSM secretion								
B1		strongly increased	above 1 ng/ml	200 to 500	greater than 2500 pg/ml	1447	542	did not induce collagen release	neither OSM nor TNFα alone, used at 10 ng/ml or 50 ng/ml, respectively, induced significant MMP1 secretion

From patent US7291332B2, “Inflammatory mediator antagonists” (SmithKline Beecham Corporation, priority 1998, dated 2007)
